This is an account of results in paper PMC4320154, “Treatment of Methicillin-resistant Staphylococcus aureus experimental Osteomyelitis with bone-targeted Vancomycin” (SpringerPlus, 2013).

Data set [1] relates to Thirty clinical isolates of MRSA. As to the kind of experiment: microbe, parasite or virus in culture. The class given is cell-based, Staphylococcus aureus. The note with it: Thirty clinical isolates of. The protocol:
Thirty clinical isolates of MRSA were studied. […] The minimum bactericidal concentration (MBC) of vancomycin HCl and BT2-peg2-vancomycin diacetate were also determined according to CLSI guidelines (Clinical and Laboratory Standards Institute [1999]).

Data set [2] in a line: Plasma concentrations in infected animals by LC/MS. The class given is in vivo, male Wistar rats. The note with it: male, Wistar, rat, in vivo, ip, 63.85 mg/kg. As to the method:
Four weeks after establishing infection, five rats were sacrificed, the left tibia aseptically removed and quantitative cultures performed. The remaining animals underwent surgical débridement of the infection site with sterile saline and were arbitrarily assigned to one of five study arms for a duration of 21 days: No treatment (n=17), vancomycin HCl every 12 hours (n=17, 42 doses), BT2-peg2-vancomycin diformate every 12 hours (n=17, 42 doses), BT2-peg2-vancomycin diformate every 12 hours for 3.5 days and then every fourth day thereafter (n=16, 11 doses), and BT2-peg2-vancomycin diformate once per week (n=15, 3 doses). Vancomycin HCl was administered at 50 mg/kg and BT2-peg2-vancomycin diformate at 63.85 mg/kg (equivalent to 50 mg/kg active vancomycin); both were administered intraperitoneally. Twelve hours after completion of therapy (day 50), blood was collected via cardiac puncture for hematology and chemistry studies [performed by Charles River (Wilmington, MA)], and drug concentration studies. Rats were sacrificed with CO2. The left (infected) tibia from one animal in each group was collected for histopathology with bones placed in 10% neutralized buffered formalin (NBF), decalcified, embedded in […], prepared as longitudinal cuts and stained with hematoxylin and eosin. The left (infected) tibias from the remaining animals were weighed, cryopulverized and processed for quantitative and qualitative bacterial culture. Culture results were expressed as log10 cfu/g of bone tissue.
Plasma concentrations of BT2-peg2-vancomycin in infected animals were measured by liquid chromatography/mass spectrometry (LC/MS). […] The elutes (50 μl) were diluted with 450 μl 5% ACN in 0.1% formic acid and analyzed by Accela LC System (Thermo Scientific, San Jose, CA) coupled with a LTQ-Orbitrap XL mass spectrometer (Thermo Scientific, San Jose, CA). […] Elutes from the LC column were ionized by electrospray ionization and BT2-peg2-vancomycin and teicoplanin were detected by multiple reaction monitoring. […]
Plasma concentrations of vancomycin were measured by LC/MS. […]

For data set [3] the following is noted: rat, in vivo, 63.85 mg/kg; cited from earlier work. The protocol: Chemical conjugation of vancomycin to a bone-targeting moiety would theoretically yield a compound targeting delivery of vancomycin to bone, a strategy that could be useful in the treatment of bone infection. Pradama Inc. has developed a bone-targeted vancomycin, BT2-peg2-vancomycin (Figure 1) (Pierce et al. [2011]). Previous studies show concentrations of BT2-peg2-vancomycin twelve hours after a single injection (63.85 mg/kg, equivalent to 50 mg/kg vancomycin) were 27.97 and 14.18 μg/ml for plasma and bone, respectively. Concentrations of BT2-peg2-vancomycin after seven doses given every 12 h ...

For the compound `CN[C@H](CC(C)C)C(=O)N[C@H]1C(=O)N[C@@H](CC(N)=O)C(=O)N[C@H]2C(=O)N[C@H]3C(=O)N[C@H](C(=O)N[C@H](C(=O)NCCOCCOCC(=O)Nc4ccc(OC)c(C(N)=O)c4O)c4cc(O)cc(O)c4-c4cc3ccc4O)[C@H](O)c3ccc(c(Cl)c3)Oc3cc2cc(c3O[C@@H]2O[C@H](CO)[C@@H](O)[C@H](O)[C@H]2O[C@H]2C[C@](C)(N)[C@H](O)[C@H](C)O2)Oc2ccc(cc2Cl)[C@H]1O` [BT2-peg2-vancomycin], in data set [1], the “MIC at which 50% of the isolates were inhibited (MIC50)” value was determined as 1 µg/mL and the “MIC at which 90% of the isolates were inhibited (MIC90)” value was 2 µg/mL. In data set [2], this compound registered a level at 12 h of 130 µg/mL and a level at 48 h of 880 ng/mL. Besides, in data set [3], the bone concentration is 14.18 µg/mL and the plasma concentration was 27.97 µg/mL.
